“Also recorded” adds a separate entry of the source.
Key:
COI1-JAZ9 interaction = assay: Quantitative liquid Y2H assays (Beta-Glo, RLU); format: cell-based, Arabidopsis; conditions: liquid Y2H, yeast
root growth = assay: Root growth inhibition assays; format: in vivo, Arabidopsis; conditions: root growth inhibition, 0.2 μM COR vs 10 μM MeJA, in vivo
Experimental: Col-0, segregating COI1-30, transgenic COI1WT, and COI1A384V seeds were surface-sterilized, cold-stratified, and germinated on half-strength MS agar media containing MeJA, COR, or DMSO at the indicated concentrations. Seedlings were grown under long-day light conditions (16-h light at 100 μE·m^2·s, and 8-h dark) for 10-12 days before scanning images of roots. Root lengths were measured using ImageJ software (see website at rsbweb.nih.gov/ij/).

PR1 gene expression = assay: qPCR of SA-responsive gene PR1; format: in vivo, Arabidopsis; conditions: plants expressing the protein
Experimental: (§1) Col-0 and transgenic seeds were germinated on half-strength MS medium. Five-day-old seedlings were transferred into liquid half-strength MS medium. Segregating coil-30 seeds were germinated on half-strength MS medium with 10 μM MeJA. and MeJA-resistant 5-d-old seedlings were transferred into liquid half-strength MS medium. Next, 10 μM MeJA (Sigma), 0.2 μM COR or 0.1% DMSO were applied to 12-d-old seedlings. Samples were collected after 3 h and total RNA was extracted using Qiagen RNeasy Mini kit (Qiagen). M-MLV Reverse transcriptase (Life Technologies) and SYBR Green master mix (Life Technologies) were used for reverse-transcription and real-time PCR. Primers used were: […]

SID2 gene expression = assay: qPCR of SA-responsive gene SID2; format: in vivo, Arabidopsis; conditions: plants expressing the protein
Experimental: as §1

Pst DC3000 = assay: Bacterial infection assay, dip-inoculation; format: in vivo, Pseudomonas syringae pv tomato; conditions: 3 days after dip-inoculation
Experimental: (§2) The Pseudomonas syringae infection assays in Arabidopsis were performed as described by Yao et al. (Methods Mol Biol 1011:63-81 (2013)). In brief, 4- to 5-wk-old (12-h light/12-h dark) Arabidopsis plants were dip-inoculated with bacterial suspension (1×10^8 cfu/mL Pst DC3000 or Psm ES4326 in 0.25 mM MgCl2 solution with 0.025% Silwet-77) or syringe-infiltrated with bacterial suspension (1×10^6 cfu/mL Pst DC3118 or DB29 in 0.25 mM MgCl2 solution). Bacterial growth was determined by serial dilutions of plant extracts 3 or 4 days after inoculation. Homozygous COI1-30 plants were selected by genotyping before bacterial infection.

Psm ES4326 = assay: Bacterial infection assay, dip-inoculation; format: in vivo, Pseudomonas syringae pv maculicola; conditions: 3 days after dip-inoculation
Experimental: as §2

Spodoptera exigua = assay: Insect feeding assays; format: in vivo
Experimental: Insect bioassays were performed as described by Herde et al. (Methods Mol Biol 1011:51-61 (2013)). Briefly, eggs of Spodoptera exigua were obtained from Benzon Research, and four neonate Spodoptera exigua larvae were transferred to the center of each 6-wk-old Arabidopsis host plant. Plants were grown under 8-hour light (100 μE·m^2·s) and 16-h dark and covered with cup cages. Larval weights were determined after 9-12 days of feeding.

B1: COI1A384V: modified Arabidopsis thaliana COI1 protein with valine at position 384 (SEQ ID NO:2); also names transgenic plants expressing it (protein, listed as Arabidopsis thaliana)
chain: MEDPDIKRCKLSCVATVDDVIEQVMTYITDPKDRDSASLVCRRWFKIDSETREHVTMALCYTATPDRLSRRFPNLRSLKLKGKPRAAMFNLIPENWGGYVTPWVTEISNNLRQLKSVHFRRMIVSDLDLDRLAKARADDLETLKLDKCSGFTTDGLLSIVTHCRKIKTLLMEESSFSEKDGKWLHELAQHNTSLEVLNFYMTEFAKISPKDLETIARNCRSLVSVKVGDFEILELVGFFKAAANLEEFCGGSLNEDIGMPEKYMNLVFPRKLCRLGLSYMGPNEMPILFPFAAQIRKLDLLYALLETEDHCTLIQKCPNLEVLETRNVIGDRGLEVLAQYCKQLKRLRIERGADEQGMEDEEGLVSQRGLIALAQGCQELEYMVVYVSDITNESLESIGTYLKNLCDFRLVLLDREERITDLPLDNGVRSLLIGCKKLRRFAFYLRQGGLTDLGLSYIGQYSPNVRWMLLGYVGESDEGLMEFSRGCPNLQKLEMRGCCFSERAIAAAVTKLPSLRYLWVQGYRASMTGQDLMQMARPYWNIELIPSRRVPEVNQQGEIREMEHPAHILAYYSLAGQRTDCPTTVRVLKEPI
COI1-JAZ9 interaction; 1 μM COR
  COR-dependent COI1-JAZ9 interaction: greatly reduced
COI1-JAZ9 interaction; 10 or 30 μM JA-Ile
  JA-Ile-dependent COI1-JAZ9 interaction: less effect
COI1-JAZ9 interaction
  differential effect on JA-Ile-dependent vs COR-dependent COI1-JAZ9 interaction: preferably affects COR-dependent COI1-JAZ9 interaction
Root growth
  sensitivity of plants to COR vs MeJA: significantly less sensitive; also recorded: differentially sensitive
Root growth; listed as COI A384V
  sensitivity of plants to COR vs MeJA: more sensitive
PR1 gene expression
  expression of PR1 gene: similarly low
SID2 gene expression
  expression of SID2 gene: similarly low
Pst DC3000
  resistance / susceptibility to Pst DC3000 (bacterial growth and disease symptoms): significantly increased resistance
Psm ES4326
  resistance to Psm ES4326 compared with Col-0 or COI1WT plants: significantly increased resistance
Spodoptera exigua; S. exigua neonate larvae
  average weight of larvae feeding on COI1-30 plants higher than larvae reared on these plants: five-fold
Spodoptera exigua; in vivo
  level of defense against S. exigua: almost wild-type levels

Source: patent US10584350B2, “Structurally modified COI1” (Board of Trustees of Michigan State University, priority 2016, dated 2020)
